Results from patent US6991794B1, “Progenitor cell preservation factors and methods for and products of their use” (ImClone Systems Incorporated, priority 1997, dated 2006).

Columns and labels:
[1] = molecular target: FLT3-transfected 3T3 cells (murine FLT3 extracellular portion/human Fms chimera and/or full-length human FLT3; not told apart); experiment: cell-based or functional assay
[2] = test system: human cord blood progenitors; experiment: cord blood mononuclear cell liquid culture followed by methylcellulose colony assay; format: cell-based; details: for Blast colonies / Erythroid colonies / Mix colonies / Myeloid colonies: 40 ng/ml, ± SD of triplicate
Description: To do this, umbilical cord blood from healthy donors was collected in 100 units/ml of heparin. Cord blood mononuclear cells (CB mnc) were isolated within 4 hours of collection by separation using the density separation medium sold under the trademark of FICOLL-PAQUE® (Pharmacia Biotech, Piscataway, N.J.) following manufacturer's instruction and washed in X-VIVO 10 medium (BioWhittaker, Walkersville, Md.). CB mnc were then cultured in six well tissue culture plates (Corning Inc., Corning, N.Y.) at a concentration of 200,000 cells/mL in a volume of 4 mL of X-VIVO 10 (i.e., 800,000 cells total per well). Dl-FRIL and/or recombinant E. coli Flt3-L (recFL; BioSource International, Camarillo, Calif.) were added at a concentration of 40 ng/ml at the outset (with no addition as a control). Cultures were incubated in humidified chambers without medium changes for up to 29 days.
After incubation, the cultured CB mnc cells were harvested by washing in X-VIVO 10 (i.e., harvested cells were pelleted and resuspended in X-VIVO 10) to remove the Dl-FRIL and/or recFL, and then determining viable cell number by trypan blue (Sigma) exclusion.
The progenitor capacity of the blast-like colonies was examined further for cells initially cultured for 3 weeks in either Dl-FRIL, recFL, no addition, or Dl-FRIL+recFL, and then without these regulators for an additional 6 weeks in a methylcellulose colony assay. […] Viable cells were harvested from the cells initially cultured in Dl-FRIL alone and replated in an colony assay (in methylcellulose colony assay medium) for an additional 4 weeks.

[3] = test system: FLT3 receptor; format: cell-based; details: murine chimeric or full length human receptor
Description: A specific and quantitative biological assay using NIH 3T3 fibroblasts transfected either with a chimeric receptor having the extracellular portion of the murine FLT3 receptor combined with the intracellular portion of the human Fms receptor (Dosil et al., Mol. Cell. Biol. 13(10):6572-6585 1993) or with the full length human receptor (Small et al., Proc. Natl. Acad. Sci. USA 91:459-463, 1994) can be used to evaluate lectin biological activity during purification. Serial two-fold dilutions of lectin samples across rows of a 96 well plate allowed for greater than a thousand-fold range to access FLT3 3T3 biological activity.
Specifically, 3T3 cells cultured in tissue culture plates (Becton Dickinson Labware, Lincoln Park, N.J.) were removed from the plates by washing cells twice in Hank's buffered saline solution (HBSS; Gibco Laboratories, Grand Island, N.Y.). […] Proliferation and cell survival was quantitated by addition of XTT (2, 3-bis[Methoxy-4-nitro-5sulfophenyl]-2H-tetrazolium-5 carboxanilide inner salt) (Diagnostic Chemicals Ltd, Charlottetown, Prince Edward Island, Canada), which is a tetraformazan salt cleaved by actively respiring cells (Roehm et al., J. Immunol. Methods 142: 257-265, 1991). […] One unit of biological activity was defined as the reciprocal dilution at which half-maximal stimulation of cells is detected.

[4] = test system: CB CD34+ cells; experiment: cell cycle analysis of CD34+ cells (propidium iodide); details: CD34+ cells cultured 3 days; mean ± SE
Description: Cells were analyzed for their DNA content by staining with propidium iodide (Sigma). The cells were cultured in ex vivo cultures as described, for 3, 6, 10, and 13 days as indicated. At each time point, the cells were collected, resuspended to a final concentration of 0.1-1×10^6 cells/mL, and incubated with 0.1% Triton X 100 (Sigma) for 20 minutes on ice. 50 mg/mL propidium iodide (PI) were added before analysis. Flow cytometeric analyses were performed using FACSort (Becton Dickinson, San Jose, Calif.).
The cell cycle status of CB CD34^+ cells was analyzed in 5 indepenent experiments with cells cultured for 3-13 days with either Dl-FRIL or a cytokine combination (SCF, Flt3-L, G-CSF, IL-3, IL-6) (Bhatia et al., J. Exp. Med. 186:619-624, 1997; Conneally et al., Proc. Natl. Acad. Sci. USA 94:9836-9841, 1997).

[5] = test system: CB CD34+ progenitor cells; experiment: ex vivo culture of CB CD34+ cells: total cell numbers and CFU assay; format: cell-based, human
Description: Human umbilical cord blood (CB) samples were obtained from full term deliveries. The blood samples were diluted 1:1 in phosphate-buffered-saline (PBS) without Mg^+2/Ca^+2, supplemented with 10% fetal bovine serum (FBS). Low density mononuclear cells were collected after standard separation on Ficoll-Paque (Pharmacia Biotech, Uppsala, Sweden), and washed in RPMI with 10% FBS. Some samples were frozen in 10% DMSO, while the others were used fresh. Enrichment of CD34^+ cells was performed with mini MACS separation kit (Miltenyi Biotec, Bergisch Gladbach, Germany) according to the manufacturer's instructions. The purity of the enriched CD34^+ cells was 60-80% using one column. […]
Ex vivo Cultures Human CD34^+ enriched cells were cultured in 24 well plates (2-4×10^5 cells in 0.5 mL), containing RPMI supplemented with 10% FBS+1% BSA. […] After 3, 6, 10 and 13 days, the cells were collected, counted, analyzed by FACS, seeded in to semisolid cultures and transplanted into NOD-SCID mice.
Semisolid cultures were performed in order to detect the levels of human progenitors in ex vivo cultures, and in the marrow of transplanted mice. […] The cultures were incubated at 37° C. in a humidified atmosphere containing 5% CO2 and scored 14 days later with an inverted microscope for myeloid, erythroid, and mixed colonies by morphologic criteria. […]

[6] = in vivo; cited from earlier work
[7] = test system: Flt3-expressing 3T3 cells; experiment: Flt3 3T3 assay during purification of Pv-FRIL; format: cell-based; details: by itself at <1 ng/mL
Description: To create factor-dependence for receptor-transfected 3T3 cells, growth conditions were compromised to permit only ligands to rescue cells from death. To do this, 3T3 cell lines were assayed in 96 well plates (Becton Dickinson Labware, Lincoln Park, N.J.) containing 3,000 cells in 100 μL of serum-free medium consisting of 10% AIMV (Life Technologies) and 90% DMEM. In each experiment, samples were serially diluted two-fold across rows starting at a 1:10 dilution. Viable cells were quantitated after 3-5 days by XTT (2,3-bis[Methoxy-4-nitro-5sulfophenyl]-2H-tetrazolium-5 carboxanilide inner salt) (Sigma, St. Louis, Mo.) (Roehm et al., supra). Relative activity (units/ml) and specific activity (units/mg) are defined as the reciprocal dilution at which half-maximal stimulation of cells was detected.
Each batch of PHA-LCM was generated in serum-free medium with cells from individual normal donors. To start purification, the PHA-LCM with Flt3 3T3 activity was pooled in 30 liter lots with approximately 10^7 Flt3 3T3 units. Twenty-five liters of PHA-LCM was diafiltered into 50 mM Tris-HCl, pH 7.6, 50 mM NaCl and then concentrated to 2-2.5 liters by tangential flow ultrafiltration on a 10 kDa molecular weight cutoff membrane (Pellicon, Millipore, Bedford, Mass.). A Blue-sepharose FF (Pharmacia Biotech) column (10 cm×15 cm) was equilibrated with 50 mM Tris-HCl, pH 7.4,50 mM NaCl. […]

Molecule: Pv-FRIL (native, from Phaseolus vulgaris red kidney bean extract / purified from PHA-LCM)
- Specific Activity (u/mg) in the Flt3 3T3 assay, Superdex 75 step [1]: 244000 units/mg

B1: recFL: recombinant E. coli Flt3-L (FLT3 ligand) (protein, UniProt P49771 27-235, looked up)
Fms-related tyrosine kinase 3 …: TQDCSFQHSPISSDFAVKIRELSDYLLQDYPVTVASNLQDEELCGGLWRLVLAQRWMERLKTVAGSKMQGLLERVNTEIHFVTKCAFQPPPSCLRFVQTNISRLLQETSEQLVALKPWITRQNFSRCLELQCQPDSSTLPPPWSPRPLEATAPTAPQPPLLLLLLLPVGLLLLAAAWCLHWQRTRRRTPRPGEQVPPVPSPQDLLLVEH
- colonies after 21 days culture and 6 weeks methylcellulose colony assay [2]: No colonies were detected
- fewer mature colonies than with FRIL or FRIL plus recFL ([2]; cells cultured 15 days): 24 fold
- Blast colonies ([2]; day 15 of culture): 0
- Erythroid colonies ([2]; day 15 of culture): 0
- Mix colonies ([2]; day 15 of culture): 0
- Myeloid colonies ([2]; day 15 of culture): 40 ± 69
- Blast colonies ([2]; day 21 of culture): 0
- Erythroid colonies ([2]; day 21 of culture): 0
- Mix colonies ([2]; day 21 of culture): 0
- Myeloid colonies ([2]; day 21 of culture): 0
- Blast colonies ([2]; day 29 of culture): 0
- Erythroid colonies ([2]; day 29 of culture): 0
- Mix colonies ([2]; day 29 of culture): 0
- Myeloid colonies ([2]; day 29 of culture): 0
- rescue of FLT3-transfected 3T3 cells from death [3]: rescue FLT3-transfected cells from death
- G0/G1 [4]: 68.4 ± 2.1 percentage
- SG2M [4]: 22.2 ± 5.4 percentage
- Sub G0/G1 [4]: 9.4 ± 3.3 percentage
- increase in number of total cells ([5]; 10 days of suspension culture, FIG. 34A): 4.5 fold
- percentage of CFU-GEMM ([5]; first factor 6 days, then cytokines): 18.2%

B2: peanut agglutinin (PNA): dietary lectin from raw peanuts (protein, UniProt P02872 24-273, looked up)
Galactose-binding lectin: AETVSFNFNSFSEGNPAINFQGDVTVLSNGNIQLTNLNKVNSVGRVLYAMPVRIWSSATGNVASFLTSFSFEMKDIKDYDPADGIIFFIAPEDTQIPAGSIGGGTLGVSDTKGAGHFVGVEFDTYSNSEYNDPPTDHVGIDVNSVDSVKTVPWNSVSGAVVKVTVIYDSSTKTLSVAVTNDNGDITTIAQVVDLKAKLPERVKFGFSASGSLGGRQIHLIRSWSFTSTLITTTRRSIDNNEKKIMNMASA
- level in the blood [6]: 1000 to 5000 ng/mL

B3: recombinant hIL1-α: exogenous recombinant human interleukin 1-α (protein, UniProt P01583 113-271, looked up)
Interleukin-1 alpha: SAPFSFLSNVKYNFMRIIKYEFILNDALNQSIIRANDQYLTAAALHNLDEAVKFDMGAYKSSKDDAKITVILRISKTQLYVTAQDEDQPVLLKEMPEIPKTITGSETNLLFFWETHGTKNYFTSVAHPNLFIATKQDYWVCLAGGPPSITDFQILENQA
- stimulatory activity on Flt3 3T3 cells [7]: no stimulatory activity
